Consider 1 substance from publication PMC2217618.

In the assay the target is RGDPEG-avidin (UniProt P02701). Nature of the assay: ELISA.
Sequence of RGDPEG-avidin (P02701 25-152): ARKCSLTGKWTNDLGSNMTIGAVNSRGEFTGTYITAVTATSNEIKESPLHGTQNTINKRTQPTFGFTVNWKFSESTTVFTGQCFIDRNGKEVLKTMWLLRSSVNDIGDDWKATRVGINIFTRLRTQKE

Sequence of Bio-ULS-TRAIL (P50591 114-281): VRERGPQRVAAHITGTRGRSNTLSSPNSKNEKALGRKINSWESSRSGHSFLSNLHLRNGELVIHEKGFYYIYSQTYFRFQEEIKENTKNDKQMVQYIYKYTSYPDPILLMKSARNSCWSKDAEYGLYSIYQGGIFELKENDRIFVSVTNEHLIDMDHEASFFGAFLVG

As for “Bio-ULS-TRAIL (from UniProt P50591 114-281) (ligand)”, the binding less than Bio-NHS-TRAIL was determined as 40 % less.
